Where two headings read alike, the source gives them in different places.

Assay [1] concerns the target T1, human BTLA expressed on cells (human, UniProt Q7Z6A9 31-289). Kind of assay: cell-based or functional assay.
Assay [2] addresses T1, human BTLA expressed on cells. Kind of assay: FACS on 293F cells expressing hBTLA. Here is the method:
The humanized anti-BTLA antibodies were determined for their binding ability to hBTLA expressed on cells using cell-based flow cytometry (FACS). […] Then the cells were mixed with 50 μL of antibody diluent at different concentrations (initial concentration: 10 μg/mL, 3-fold titration), and incubated at room temperature for 30 minutes. After being washed with an FACS buffer twice, the cells were added with 100 μL of goat anti-human IgG-PE antibody, incubated for 30 minutes away from light, and assayed by FACS after two washes with an FACS buffer. The washed cells were resuspended in 4° C. buffer containing propidium iodide (PI) and 0.02% sodium azide that prevents receptor internalization and analyzed by flow cytometry. Viable cells were gated on the basis of PI positive cells being excluded from the FSC/SSC gate and their geometric mean fluorescence intensity was measured. The data were analyzed using a sigmoidal dose-response model within Prism™ software.
The humanized antibodies hu17, hu18, and hu19 can effectively bind to hBTLA on 293 cells.

Assay [3] concerns the target T2, hBTLA (human BTLA protein coated on plates or coupled to a chip) (human, UniProt Q7Z6A9 31-157, limits assumed).
T2 sequence (looked up): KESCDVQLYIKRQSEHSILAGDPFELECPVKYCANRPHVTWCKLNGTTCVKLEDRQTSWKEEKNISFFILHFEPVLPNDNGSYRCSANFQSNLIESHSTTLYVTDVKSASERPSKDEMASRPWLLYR
Nature of the assay: ELISA, hBTLA coated at 0.5 µg/mL, anti-human IgG4-HRP detection. Here is the method: (§1) The binding specificity of the humanized antibodies to hBTLA was determined by conventional ELISA method. A 96-well microplate was coated with 0.5 μg/mL hBTLA and incubated at 37° C. for 60 minutes. The solution in wells was then discarded, and the wells were washed 3 times with washing buffer, and blocked for 60 minutes with PBS containing 2% BSA. After being washed 3 times with washing buffer, the wells were added with gradiently-diluted antibodies, incubated at 37° C. for 60 minutes, and washed 3 times with washing buffer before adding a HRP-labeled mouse anti-human IgG4 secondary antibody diluted at 1:10000. The mixture was incubated at 37° C. for 1 hour, washed three times with washing buffer, and added with 100 μL of TMB substrate solution for color development at room temperature for 30 minutes, then the reaction was stopped with 100 μL of 2M hydrochloric acid solution and the absorbance was read at 450 nm.
The humanized antibodies hu17, hu18, and hu19 can specifically bind to hBTLA.

Assay [4] deals with T3, recombinant protein of human BTLA extracellular domain (hBTLA-ECD-FC) (human, UniProt Q7Z6A9 31-157, biotin-labeled in the FACS blocking assays (site not stated)).
T3 construct: extracellular domain; also called BTLA-Fc; biotin-labeled hBTLA; not shown: Fc of the self-constructed HX1-FC expression plasmid
T3 sequence (looked up): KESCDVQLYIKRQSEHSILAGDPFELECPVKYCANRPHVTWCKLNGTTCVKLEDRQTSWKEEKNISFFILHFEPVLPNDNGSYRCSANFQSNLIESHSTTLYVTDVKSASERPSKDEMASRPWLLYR
Kind of assay: FACS, blocking of biotin-labeled hBTLA binding to hHVEM-293F cells. The procedure:
(§2) Then the cells were mixed with previously biotin-labeled hBTLA (1 μg/mL) protein, incubated at 4° C. for 15 minutes, followed by mixing with 50 μL of humanized antibody diluent (initial concentration: 5 μg/mL, 3-fold titration) at different concentrations, and incubating at room temperature for 30 minutes. After being washed with an FACS buffer twice, the cells were added with 100 μL of goat anti-human IgG-PE antibody, incubated for 30 minutes away from light, and assayed by FACS after two washes with an FACS buffer. The washed cells were resuspended in 4° C. buffer containing propidium iodide (PI) and 0.02% sodium azide that prevents receptor internalization and analyzed by flow cytometry. Viable cells were gated on the basis of PI positive cells being excluded from the FSC/SSC gate and their geometric mean fluorescence intensity was measured. The data were analyzed using a sigmoidal dose-response model within Prism™ software.
The […] antibodies hu17, hu18, and hu19 can effectively block the binding of human BTLA to HVEM on the cell surface.

In assay [5] the target is T2, hBTLA (human BTLA protein coated on …). Kind of assay: ELISA, hBTLA coated at 0.5 µg/mL, anti-human IgG4-HRP detection. Here is the method: as §1, with “ability” for “specificity”, “chimeric” for “humanized”, “assayed” for “determined”, “ELISA.” for “conventional ELISA method.”
The chimeric antibodies ch7, ch12, ch17, ch22 and ch27 can specifically bind to hBTLA.
This is another data set of the same source. On the technique in general: In an ELISA, binding on a coated surface is turned into a signal by an enzyme label.

Assay [6] addresses T3, recombinant protein of human BTLA …. Nature of the assay: FACS, blocking of biotin-labeled hBTLA binding to hHVEM-293F cells. Here is the method: as §2, with “chimeric” for “humanized”, “intensity (MFI)” for “intensity”, “PrismTM” for “Prism™”
The chimeric antibodies ch12, ch17, ch22 and ch27 can effectively block the binding of human BTLA to HVEM on the cell surface.
This is another data set of the same source. In general terms: A flow cytometer gives signals particle by particle.

B1: humanized antibody hu19 (antibody, V domains shown)
VH: QVQLVQSGAEVKKPGASVKLSCKASGYNFKHTYAHWVRQAPGQGLEWIGRIDPANGNTKYDPKFQGRATMTADTASNTAYLELSSLRSEDTAVYYCVADHYGSSLLDYWGQGTLVTVSS
VL: DIVMTQTPLSLSVTPGQPASISCKSSQSLLDSDGKTYLNWFQQRPGQSPRRLMHLVSKLDSGVPDRFSGSGSGTDFTLKISRVEAEDVGVYYCWQGTYFPYTFGQGTKLEIK
notes: It was detected with an anti-human IgG4 secondary antibody
A word on the EC50: it is the midpoint of the concentration-response curve. High values mean a less potent agent, low ones a more potent agent. By IC50 is commonly meant the midpoint of a concentration-inhibition curve. On to B1, for which the “EC50 (luciferase reporter, T cell activation)” value in assay [1] amounted to 0.29 µg/mL. In addition, the EC50 in assay [2] was found to be 0.0951 µg/mL; in assay [3] it was 0.0066 µg/mL. Moreover, the IC50 in assay [4] was determined as 0.162 µg/mL.

B2: chimeric antibody ch12 (antibody, human IgG4, V domains shown)
VH: EVQLQQSGADLVKPGASVKLSCTASGFNFKHTYAHWVKQRPEQGLEWIGRIDPANGNTKYDPKFQGKATMTADTASNAAFLQLSSLTSEDTAVYYCVADHYGSSLLDYWGQGTSLTVSS
VL: EVVMTQTPLTLSVTIGQSASISCKSSQSLLDSDGKTYLNWFLQRPGQSPKRLMHLVSKLDSGVPDRFTGSGSGTDFTLKISGVEAEDLGVYYCWQGTYFPYTFGGGTKLETK
notes: T0010 gives only CDR numbers (HCDR 13-15, LCDR 10-12)
With B2, the “EC50 (luciferase reporter, T cell activation)” value in assay [1] was 0.139 µg/mL. Further, the EC50 in assay [2] worked out at 0.0881 µg/mL; in assay [5], 0.0094 µg/mL. In addition, the results for the IC50 in assay [6] and in assay [4] were 0.0772 µg/mL and 0.157 µg/mL, respectively.

B3: chimeric antibody ch17 (antibody, human IgG4, V domains shown)
VH: EVQLQQSGADLVKPGASVKLSCTASGFNIKDTYVHWVKQRPEQGLEWIGRIDPANGHTKFDPKFQGKATITADTSSNTANLQISSLTSEDTAVYYCVSDYYGSSLLDYWGQGTTLTVSS
VL: EVVMTQTPLTLSVTIGQSASISCKSSQSLLDSDGKTYLNWFLQRPGQSPKRLMHLVSKLDSGVPDRFTGSGSGTDFTLKISGVEAEDLGVYYCWQGTYFPYTFGGGTKLETK
notes: T0010 gives only CDR numbers (HCDR 19-21, LCDR 10-12)
The molecule B3 came in with an EC50 in assay [5] of 0.0298 µg/mL. Besides, the IC50 in assay [6] was determined as 0.0761 µg/mL.

B4: chimeric antibody ch7 (antibody, human IgG4, V domains shown)
VH: EVQLQQSGAELVKPGASVKLSCTVSGFNIKDSYIHWVKQRPEQGLEWIGRIDPANGNTKYDPKFRGKATITADASSNTAALQVSSLTSEDTAVYFCVGDHYGSSLFDYWGHGTTLTVSS
VL: EVVMTQTPLTLSVTIGQSASISCKSSQSLLDSDGKTYLNWFLQRPGQSPKRLMHLVSKLDSGVPDRFTGSGSGTDFTLKISGVEAEDLGVYYCWQGTYFPYTFGGGTKLETK
notes: T0010 gives only CDR numbers (HCDR 4-6, LCDR 10-12)
As to B4, in assay [5], the EC50 was determined as 0.0066 µg/mL.

B5: chimeric antibody ch27 (antibody, human IgG4, V domains shown)
VH: EVHLQQSGTELMKPGASVKLSCTASGLNIRDTYMHWVKQRPEQGLEWIGRIDPANGNTKFDPKFQGKATLTSDTSSNTAYLHFSSLTSEDAAVYYCVSDHYGSSLLDYWGQGTSLTVSS
VL: EVVMTQTPLTLSVTIGQSASISCKSSQSLLDSDGKTYLNWFLQRPGQSPKRLMHLVSKLDSGVPDRFTGSGSGTDFTLKISGVEAEDLGVYYCWQGTYFPYTFGGGTKLETK
notes: T0010 gives only CDR numbers (HCDR 28-30, LCDR 10-12)
As for B5, in assay [5], the EC50 turned out to be 0.0052 µg/mL. Also, the IC50 in assay [6] is 0.0695 µg/mL.

B6: chimeric antibody ch22 (antibody, human IgG4, V domains shown)
VH: EVQLQQSGAELVRPGASVKLSCTVSGFNIKDTYVHWVKQRPEQGLEWIGRIDPANGHTKYDPKLQGTATITADTSSNTAYLQLSSLTSEDTAVYYCATDYYGSSLLDYWGQGTTLTVSS
VL: EVVMTQTPLTLSVTIGQSASISCKSSQSLLDSDGKTYLNWFLQRPGQSPKRLMHLVSKLDSGVPDRFTGSGSGTDFTLKISGVEAEDLGVYYCWQGTYFPYTFGGGTKLETK
notes: T0010 gives only CDR numbers (HCDR 25-27, LCDR 10-12)
With B6, the EC50 in assay [5] is 0.0373 µg/mL. Further, the IC50 in assay [6] was 0.0757 µg/mL.

These data come from patent publication US20210246209A1 (SHANGHAI JUNSHI BIOSCIENCES, published 2021).
